Substitutions are numbered along the chain they refer to. Read-outs that look alike come from different tables or passages of the source.
Experiments:
hEndoU WT [1] = target: T1, hEndoU WT (Homo sapiens, UniProt P21128 135-410); assay: NMR
T1 sequence: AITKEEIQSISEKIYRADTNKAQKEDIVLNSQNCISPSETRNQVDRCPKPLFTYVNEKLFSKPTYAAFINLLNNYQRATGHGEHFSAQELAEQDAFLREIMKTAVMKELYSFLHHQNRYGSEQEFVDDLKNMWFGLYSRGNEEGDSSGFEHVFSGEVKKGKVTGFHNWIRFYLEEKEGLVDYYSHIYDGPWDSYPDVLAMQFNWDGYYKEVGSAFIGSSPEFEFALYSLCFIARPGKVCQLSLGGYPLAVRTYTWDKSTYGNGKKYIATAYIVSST

hEndoU WT [2] = target: T1, hEndoU WT; assay: NMR; remark: listed apart in the source
hEndoU H285A/R385K = target: T2, hEndoU H285A/R385K (Homo sapiens, UniProt P21128 135-410, H285A;R385K); assay: EMSA
T2 sequence: T1 sequence with H151A, R251K

hEndoU E284A = target: T3, hEndoU E284A (Homo sapiens, UniProt P21128 135-410, E284A); assay: EMSA
T3 sequence: T1 sequence with E150A

hEndoU H285A = target: T4, hEndoU H285A (Homo sapiens, UniProt P21128 135-410, H285A); assay: EMSA
T4 sequence: T1 sequence with H151A

hEndoU H285A/R385A = target: T5, hEndoU H285A/R385A (Homo sapiens, UniProt P21128 135-410, H285A;R385A); assay: EMSA
T5 sequence: T1 sequence with H151A, R251A

B1: 2'-F (U)6 (XNA)
RNA: UUUUUU
modifications: 2'-F at all nucleotides
B1: binds (hEndoU WT [1]).

B2: 2'-F RNA AAGUCC (XNA)
RNA: AAGUCC
modifications: 2'-F at all nucleotides
B2: binds (hEndoU WT [2]).

B3: single-uridylate RNA (ssRNA)
RNA: CACGAGUACCAGAAAACCAAAA
B3: binds (hEndoU H285A/R385K); binds (hEndoU E284A); binds (hEndoU H285A). B3: binds (hEndoU H285A/R385A).

Reference: article PMC11961692
